B1: Ferroportin (Mus musculus), Q9JHI9 (parent)
chain: MTKARDQTHQEGCCGSLANYLTSAKFLLYLGHSLSTWGDRMWHFAVSVFLVELYGNSLLLTAVYGLVVAGSVLVLGAIIGDWVDKNARLKVAQTSLVVQNVSVILCGIILMMVFLHKNELLTMYHGWVLTVCYILIITIANIANLASTATAITIQRDWIVVVAGENRSRLADMNATIRRIDQLTNILAPMAVGQIMTFGSPVIGCGFISGWNLVSMCVEYFLLWKVYQKTPALAVKAALKVEESELKQLTSPKDTEPKPLEGTHLMGEKDSNIRELECEQEPTCASQMAEPFRTFRDGWVSYYNQPVFLAGMGLAFLYMTVLGFDCITTGYAYTQGLSGSILSILMGASAITGIMGTVAFTWLRRKCGLVRTGLFSGLAQLSCLILCVISVFMPGSPLDLSVSPFEDIRSRFVNVEPVSPTTKIPETVFTTEMHMSNMSNVHEMSTKPIPIVSVSLLFAGVIAARIGLWSFDLTVTQLLQENVIESERGIINGVQNSMNYLLDLLHFIMVILAPNPEAFGLLVLISVSFVAMGHLMYFRFAQKTLGNQIFVCGPDEKEVTDENQPNTSVV

Variants of: B1
Details: with jak2_human JAK2, O60674
jak2_human JAK2, O60674, sequence (O60674 whole entry): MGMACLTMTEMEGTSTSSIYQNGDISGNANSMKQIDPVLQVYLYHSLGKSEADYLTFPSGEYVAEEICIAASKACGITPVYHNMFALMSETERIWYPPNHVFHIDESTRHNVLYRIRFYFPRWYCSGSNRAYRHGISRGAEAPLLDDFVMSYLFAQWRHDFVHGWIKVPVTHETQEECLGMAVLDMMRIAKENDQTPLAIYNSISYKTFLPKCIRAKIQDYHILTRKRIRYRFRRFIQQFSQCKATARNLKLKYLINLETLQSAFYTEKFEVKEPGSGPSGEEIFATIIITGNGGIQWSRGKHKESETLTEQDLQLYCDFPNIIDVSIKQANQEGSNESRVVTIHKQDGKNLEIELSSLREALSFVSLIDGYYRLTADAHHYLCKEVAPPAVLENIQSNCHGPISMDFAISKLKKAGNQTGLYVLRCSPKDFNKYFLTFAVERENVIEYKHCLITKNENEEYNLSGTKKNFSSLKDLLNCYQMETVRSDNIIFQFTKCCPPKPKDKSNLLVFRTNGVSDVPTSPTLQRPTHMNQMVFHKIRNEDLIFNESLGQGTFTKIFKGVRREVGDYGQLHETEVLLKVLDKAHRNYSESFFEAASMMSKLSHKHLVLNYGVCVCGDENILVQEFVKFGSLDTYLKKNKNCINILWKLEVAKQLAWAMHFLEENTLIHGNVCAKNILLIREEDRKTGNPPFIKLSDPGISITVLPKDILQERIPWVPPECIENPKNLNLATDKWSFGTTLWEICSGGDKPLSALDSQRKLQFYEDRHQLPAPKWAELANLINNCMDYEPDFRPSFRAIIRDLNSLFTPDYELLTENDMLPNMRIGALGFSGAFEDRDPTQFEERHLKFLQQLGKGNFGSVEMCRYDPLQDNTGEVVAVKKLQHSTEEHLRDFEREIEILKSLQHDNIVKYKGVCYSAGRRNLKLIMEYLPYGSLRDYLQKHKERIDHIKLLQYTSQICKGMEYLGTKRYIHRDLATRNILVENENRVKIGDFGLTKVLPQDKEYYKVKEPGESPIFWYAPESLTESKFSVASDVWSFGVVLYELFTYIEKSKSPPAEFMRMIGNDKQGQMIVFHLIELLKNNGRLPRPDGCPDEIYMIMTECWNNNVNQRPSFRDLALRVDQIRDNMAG

Variant	effect of a mutation on the interaction
C326Y	disrupting interaction
